Data published in paper PMC4860565, “N6-Methyladenosine: a conformational marker that regulates the substrate specificity of human demethylases FTO and ALKBH5”.

Assays:
FTO [1] = target: T1, FTO (Homo sapiens, UniProt Q9C0B1 1-505); assay: MST (label-free); 1 mM NiSO4, 500 uM NOG; MST: 50 mM Tris pH 7.5, 150 mM NaCl, 0.05% Tween 20, 25 C; EMSA: 10 mM HEPES pH 7.3, 5% glycerol, 20 mM KCl, 1 mM MgCl2, 1 mM DTT, RNasin, 4 nM RNA, 4 C; details: protein: recombinant, tags: His6 (pNIC28-Bsa4)
ALKBH5 [2] = target: T2, ALKBH5 (Homo sapiens, UniProt Q6P6C2 66-292); assay: MST (label-free); 1 mM MnCl2, NOG presumably as for FTO; MST: 50 mM Tris pH 7.5, 150 mM NaCl, 0.05% Tween 20, 25 C; EMSA: 10 mM HEPES pH 7.3, 5% glycerol, 20 mM KCl, 1 mM MgCl2, 1 mM DTT, RNasin, 4 nM RNA, 4 C; details: protein: recombinant, tags: His6 (pNIC28-Bsa4)
T2 sequence (Q6P6C2 66-292): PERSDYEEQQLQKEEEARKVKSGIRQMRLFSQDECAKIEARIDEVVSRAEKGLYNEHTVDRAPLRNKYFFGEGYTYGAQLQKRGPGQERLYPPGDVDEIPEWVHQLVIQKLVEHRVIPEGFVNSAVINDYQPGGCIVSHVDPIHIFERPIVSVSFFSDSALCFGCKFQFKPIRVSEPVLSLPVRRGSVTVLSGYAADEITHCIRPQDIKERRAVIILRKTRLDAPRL

ALKBH5 [3] = target: T2, ALKBH5; assay: EMSA; 1 mM MgCl2; no binding at 1250-fold excess protein (5 uM); MST: 50 mM Tris pH 7.5, 150 mM NaCl, 0.05% Tween 20, 25 C; EMSA: 10 mM HEPES pH 7.3, 5% glycerol, 20 mM KCl, 1 mM MgCl2, 1 mM DTT, RNasin, 4 nM RNA, 4 C; details: protein: recombinant; tags: His6 (pNIC28-Bsa4); label: 3' biotin; blunt self-complementary duplex, 2 copies of one strand
FTO [4] = target: T1, FTO; assay: as above; details: protein: recombinant; tags: His6 (pNIC28-Bsa4); label: 3' biotin; blunt self-complementary duplex, 2 copies of one strand
YTHDF2 = target: T3, YTHDF2 (Homo sapiens, UniProt Q9Y5A9 385-576); assay: EMSA; 1 mM MgCl2; up to 5 uM protein; MST: 50 mM Tris pH 7.5, 150 mM NaCl, 0.05% Tween 20, 25 C; EMSA: 10 mM HEPES pH 7.3, 5% glycerol, 20 mM KCl, 1 mM MgCl2, 1 mM DTT, RNasin, 4 nM RNA, 4 C; details: protein: recombinant; tags: GST (pGEX-6P-1); label: 3' biotin; random coil single strand
T3 sequence: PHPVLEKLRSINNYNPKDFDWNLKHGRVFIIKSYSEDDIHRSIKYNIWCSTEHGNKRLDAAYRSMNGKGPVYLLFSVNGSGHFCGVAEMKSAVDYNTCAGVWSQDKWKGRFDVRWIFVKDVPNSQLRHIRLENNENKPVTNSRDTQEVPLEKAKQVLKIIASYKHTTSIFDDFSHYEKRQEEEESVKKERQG

T1 sequence (Q9C0B1 whole entry): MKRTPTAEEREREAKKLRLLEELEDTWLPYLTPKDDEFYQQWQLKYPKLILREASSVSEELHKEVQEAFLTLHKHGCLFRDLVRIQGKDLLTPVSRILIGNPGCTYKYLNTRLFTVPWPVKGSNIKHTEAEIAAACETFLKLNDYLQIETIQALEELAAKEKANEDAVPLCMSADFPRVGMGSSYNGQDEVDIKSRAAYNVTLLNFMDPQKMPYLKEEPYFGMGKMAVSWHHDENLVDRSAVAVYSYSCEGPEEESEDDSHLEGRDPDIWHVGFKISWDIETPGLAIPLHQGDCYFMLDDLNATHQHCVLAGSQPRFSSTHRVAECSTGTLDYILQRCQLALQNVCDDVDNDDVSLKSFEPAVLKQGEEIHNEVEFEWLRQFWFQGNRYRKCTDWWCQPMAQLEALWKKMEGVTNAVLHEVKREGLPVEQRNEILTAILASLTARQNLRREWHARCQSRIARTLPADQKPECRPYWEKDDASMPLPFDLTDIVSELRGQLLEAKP

GCGGACUCCAGAUG (ssRNA, m6A at position 5) [11]
Kd (FTO [1]; random coil single strand): 97.1 ± 6.66 µM | Kd (ALKBH5 [2]; random coil single strand): 52.9 ± 2.21 µM

B1: biotin-15 (dsRNA)
RNA 1: GCGGACUAGUCCGC
RNA 2: GCGGACUAGUCCGC
modifications: m6A at position 5 of each strand
binding result (ALKBH5 [3]): no binding | binding result (FTO [4]): no binding

GCGGACUCCAGAUG (ssRNA, m6A at position 5) [biotin-11]
binding result (YTHDF2): binds

GCGGACUCCACCGC (structured_RNA, m6A at position 5) [25]
Kd (FTO [1]; hairpin): 91.3 ± 4.65 µM | Kd (ALKBH5 [2]; hairpin): 75.3 ± 2.01 µM
